Test results taken from publication PMC8221637 (Science Advances, 2021).

Molecular target: the molecule itself
Experiment: SEC

B1: recombinant His-PIPKIγ (enzyme)
chain: MELEVPDEAESAEAGAVPSEAAWAAESGAAAGLAQKKAAPTEVLSMTAQPGPGHGKKLGHRGVDASGETTYKKTTSSTLKGAIQLGIGYTVGHLSSKPERDVLMQDFYVVESIFFPSEGSNLTPAHHFQDFRFKTYAPVAFRYFRELFGIRPDDYLYSLCNEPLIELSNPGASGSLFYVTSDDEFIIKTVMHKEAEFLQKLLPGYYMNLNQNPRTLLPKFYGLYCVQSGGKNIRVVVMNNILPRVVKMHLKFDLKGSTYKRRASKKEKEKSFPTYKDLDFMQDMPEGLLLDADTFSALVKTLQRDCLVLESFKIMDYSLLLGVHNIDQHERERQAQGAQSTSDEKRPVGQKALYSTAMESIQGGAARGEAIESDDTMGGIPAVNGRGERLLLHIGIIDILQSYRFIKKLEHTWKALVHDGDTVSVHRPSFYAERFFKFMSNTVFRKNSSLKSSPSKKGRGGALLAVKPLGPTAAFSASQIPSEREEAQYDLRGARSYPTLEDEGRPDLLPCTPPSFEEATTASIATTLSSTSLSIPERSPSETSEQPRYRRRTQSSGQDGRPQEEPPAEEDLQQITVQVEPACSVEIVVPKEEDAGVEASPAGASAAVEVETASQASDEEGAPASQASDEEDAPATDIYFFTDGRYWIYSPRHRRLRAVTLSASGTPTDERSWVYSPLHYSAQAPPASDGESDT
- stoichiometry N: 2
